What is called EC50 is the concentration at which the effect is half-maximal.

B1: VHH 2HFO42 (family 3) (VHH)
VHH: QVQLQESGGGLVQAGGSLRLSCAASGSGFSGMIMGWYRQVPGKQRELVATVTSHGTTNYADSVKGRFTISRDNAKNTVLLQMNSLKPEDTAVYYCNAHFPGIYWGKGTQVTVSS
notes: also called 2HF042; Nb42
B2: VHH 2HFO19 (family 1) (VHH)
VHH: QVQLQESGGGLVQPGGSLRVSCAASGFPFSTVYMSWVRQAPGKGLEWVSGINNDGGVIDYADSVKGRFTISRDNAKNTLYLQLNSLKPEDTALYFCARGRSFVATLSSSLRGQGTQVTVSS
notes: also called Nb19
B3: VHH 3MFR60 (family 10) (VHH)
VHH: QVQLQESGGGLVQAGGSLRVSCAASGIIFSMNGMGWFRQAPGKQRELVASITSGGSTKYADSVKGRFTISRDNAKNTVYLQMNSLKPEDTAVYYCNIQFGSRWSTYWGQGTQVTVSS

One experiment deals with T1, mouse folate receptor alpha (mFRα), recombinant protein (mouse, UniProt P35846 25-232).
T1 construct: Bought recombinant proteins (e.g. biotinylated, Acro Biosystems FO1-M82E9); also called mFOLR1; Ms FOLR1
T1 sequence (P35846 25-232 limits assumed): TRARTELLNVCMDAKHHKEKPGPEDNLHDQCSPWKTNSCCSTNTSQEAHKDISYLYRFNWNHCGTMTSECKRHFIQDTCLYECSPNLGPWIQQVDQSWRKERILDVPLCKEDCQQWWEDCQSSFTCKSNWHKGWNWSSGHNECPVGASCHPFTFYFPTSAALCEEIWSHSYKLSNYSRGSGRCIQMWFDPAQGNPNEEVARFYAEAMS
As to the kind of experiment: BLI tandem binning on mouse FRα; competitor (1st association) 2MFR32. An excerpt: VHHs that share high sequence identity in the CDR3 region, a VHH family, are derived from the same B-cell lineage and diverged from each other due to somatic hypermutation or affinity maturation. Typically, VHHs from the same family recognize the same epitope on the target, but may differ in other characteristics ^{∘}De Genst et al 2006 PNAS 103:4586-4591; De Gents et al 2005 J Biol Chem 280:14114-14121). To study whether the VHHs from the different families bound different epitopes, epitope binning was performed using a tandem binding approach in BLI. One VHH from each family was allowed to bind to mouse FRα on the biosensor, followed by binding of the second VHH ^{∘}Table 4).
Competition between VHHs from different complementarity determining region ^{∘}CDR) 3 families was assessed in a tandem binding assay using biolayer interferometry ^{∘}BLI). Streptavidin biosensors were loaded with biotinylated mouse FRα ^{∘}Acro Biosystems, Cat.nr. FO1-M82E9), followed by binding of anti-FRα VHHs ^{∘}VHH in first association). The biosensors were then transferred to a solution containing a second VHH mixed 1:1 with the first VHH ^{∘}VHH in second association). Using the FortéBio Data Analysis Software the absolute additional binding signal for the second association on top of the first association was calculated. The data were normalized per VHH in first association using the following formula: ^{∘}signal-self)/^{∘}maximum-self) with self being the value of the VHH in first association in combination with the same VHH in second association.
As for B1, the “normalized additional binding in 2nd association” value (“normalized additional binding” for short) was determined as 41%.
Regarding B2, the “normalized additional binding” value came out at 100%.
Turning to B3, the “normalized additional binding” value worked out at 75%.

In another experiment the target is T2, human FRβ with R135 replaced by glutamine (human, UniProt P14207 17-230).
T2 construct: The entry is the mutant itself; also called hFRβ R135Q
T2 sequence (P14207 17-230 R135Q limits assumed): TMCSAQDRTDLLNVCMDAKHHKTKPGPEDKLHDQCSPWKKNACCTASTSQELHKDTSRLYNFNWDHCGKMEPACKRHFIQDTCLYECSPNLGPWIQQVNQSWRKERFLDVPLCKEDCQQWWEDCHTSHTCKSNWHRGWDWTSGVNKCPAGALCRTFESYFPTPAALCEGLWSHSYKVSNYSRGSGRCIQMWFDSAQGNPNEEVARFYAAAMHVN
As to the kind of experiment: flow cytometry on transiently transfected HEK293T cells, 200 nM VHH, mouse anti-His then anti-mouse-PE (B575-A). An excerpt:
FIGS. 2A-2C illustrates the epitope mapping of anti-FOLR1 VHHs on human FOLR1/2 chimeras. ^{∘}FIG. 2A) To narrow down the epitope of the anti-folate receptor alpha ^{∘}FOLR1) VHHs, chimeric constructs were generated by exchanging a sequence block in human FOLR1 ^{∘}hFOLR1) by the corresponding human folate receptor beta ^{∘}hFOLR2) sequence, since the VHHs are able to bind both hFOLR1 and mouse FOLR1 ^{∘}mFOLR1; SEQ ID No.97), but not hFOLR2. These regions are indicated by the green arrows. Chimera 1 SEQ ID No. 67) and 7 ^{∘}Ch7; SEQ ID No. 73) also contain an additional residue change at a separate location. […] HEK293T cells were transfected with hFOLR1, hFOLR2, one of the hFOLR1/2 chimeric constructs ^{∘}FIG. 2B) or single residue mutants ^{∘}FIG. 2C). Binding of VHHs 2HFO19, 2HFO42, 3MFR60, and a mouse anti-FOLR1 monoclonal antibody ^{∘}mAb) was detected using a mouse anti-His tag antibody for the VHHs followed by an anti-mouse-phycoerythrin antibody. All VHHs were tested at a concentration of 200 nM and untransfected cells were used as a negative control. The colors used for the VHHs represent the different CDR3 families; blue: family 1, green: family 3, grey: family 10.
To further narrow down which specific residues might play a role, single residues of human FRα in the chimera 4 region that are not conserved between FRα and FRβ were mutated to their human FRβ counterpart. While all VHHs retained binding to human FRα E140Q SEQ ID No. 77), R147H ^{∘}SEQ ID No. 79), and Y150H ^{∘}SEQ ID No. 80) ^{∘}data not shown), binding was completely abolished when the Q141R mutation ^{∘}SEQ ID No. 78) was introduced ^{∘}FIG. 2C). To verify the role of this residue in the binding of the VHHs, the R135 residue in human FRβ was replaced by glutamine ^{∘}SEQ ID No. 81) and binding of the VHHs was analyzed. […] In addition to having ^{∘}partially) overlapping epitopes, the VHHs thus all require residue Q141 for binding.
(In general: Flow cytometry measures light scatter and fluorescence of single cells or particles in a stream.)
In the case of B1, the binding result was “binds”.
Still for that read-out and setting: the value for B2 was “binds”; that for B3 was “binds”.

The target in a further experiment is T3, mouse folate receptor alpha expressed on transfected HEK293T cells (mouse, UniProt P35846 25-232).
T3 construct: also called cell-expressed mouse FRα
T3 sequence (P35846 25-232 limits assumed): as the sequence (P35846 25-232 limits assumed) above
As to the kind of experiment: flow cytometry on HEK293T cells overexpressing mouse FOLR1, His tag detection, PE MFI, non-linear fit. How it is done: Data were normalized and technical replicates were plotted as mean±SD. Data were fitted by non-linear regression and the half-maximal effective concentration ^{∘}EC50) was calculated using GraphPad Prism 9 software. ^{∘}FIG. 1C and FIG. 1D) Binding affinity determination of anti-FOLR1 VHHs for native FOLR1. Mouse ^{∘}FIG. 1C) or human FOLR1 FIG. 1D) was overexpressed on HEK293T cells and binding of the anti-FOLR1 VHHs was assessed using flow cytometry. The mean fluorescence intensity ^{∘}MFI) of the phycoerythrin signal was plotted for each VHH concentration. Data were fitted by non-linear regression using GraphPad Prism 9 software. ^{∘}FIG. 1E) Determination of the competition of representative family members with folic acid ^{∘}FA) using ELISA. Mouse FOLR1 was coated on the plate and was pre-incubated with or without 100 μM FA before adding the VHHs. Data were fitted by non-linear regression using GraphPad Prism 9 software.
Molecule B1 showed an EC50 of 1.2 nM.
The molecule B2 came in with a half-maximal effective concentration (EC50) of 1.4 nM.
B3 came in with a concentration giving a half-maximal response (EC50) of 1.5 nM.

The values are drawn from patent publication US20250304677A1 (VIB VZW, published 2025).
